Reference: IntAct's records for PubMed 21586138

B1: E3 ubiquitin-protein ligase SH3RF1 (Homo sapiens), Q7Z6J0 (parent)
chain: MDESALLDLLECPVCLERLDASAKVLPCQHTFCKRCLLGIVGSRNELRCPECRTLVGSGVEELPSNILLVRLLDGIKQRPWKPGPGGGSGTNCTNALRSQSSTVANCSSKDLQSSQGGQQPRVQSWSPPVRGIPQLPCAKALYNYEGKEPGDLKFSKGDIIILRRQVDENWYHGEVNGIHGFFPTNFVQIIKPLPQPPPQCKALYDFEVKDKEADKDCLPFAKDDVLTVIRRVDENWAEGMLADKIGIFPISYVEFNSAAKQLIEWDKPPVPGVDAGECSSAAAQSSTAPKHSDTKKNTKKRHSFTSLTMANKSSQASQNRHSMEISPPVLISSSNPTAAARISELSGLSCSAPSQVHISTTGLIVTPPPSSPVTTGPSFTFPSDVPYQAALGTLNPPLPPPPLLAATVLASTPPGATAAAAAAGMGPRPMAGSTDQIAHLRPQTRPSVYVAIYPYTPRKEDELELRKGEMFLVFERCQDGWFKGTSMHTSKIGVFPGNYVAPVTRAVTNASQAKVPMSTAGQTSRGVTMVSPSTAGGPAQKLQGNGVAGSPSVVPAAVVSAAHIQTSPQAKVLLHMTGQMTVNQARNAVRTVAAHNQERPTAAVTPIQVQNAAGLSPASVGLSHHSLASPQPAPLMPGSATHTAAISISRASAPLACAAAAPLTSPSITSASLEAEPSGRIVTVLPGLPTSPDSASSACGNSSATKPDKDSKKEKKGLLKLLSGASTKRKPRVSPPASPTLEVELGSAELPLQGAVGPELPPGGGHGRAGSCPVDGDGPVTTAVAGAALAQDAFHRKASSLDSAVPIAPPPRQACSSLGPVLNESRPVVCERHRVVVSYPPQSEAELELKEGDIVFVHKKREDGWFKGTLQRNGKTGLFPGSFVENI
partner: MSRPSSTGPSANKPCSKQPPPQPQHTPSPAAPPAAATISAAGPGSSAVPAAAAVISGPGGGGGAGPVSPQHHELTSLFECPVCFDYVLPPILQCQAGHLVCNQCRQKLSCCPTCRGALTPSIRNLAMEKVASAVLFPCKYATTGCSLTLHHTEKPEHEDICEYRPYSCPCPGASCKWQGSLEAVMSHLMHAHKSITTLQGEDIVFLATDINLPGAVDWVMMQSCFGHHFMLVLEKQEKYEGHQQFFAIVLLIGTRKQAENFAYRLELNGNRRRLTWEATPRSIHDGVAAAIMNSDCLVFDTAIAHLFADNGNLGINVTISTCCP

Variants of: B1
Conditions: with siah2_human SIAH2, O43255

Variant | effect of a mutation on the interaction
V605N;P607N | disrupting interaction
